T1: GSP-2 (C. elegans PP1 homolog), as found in the MudPIT immunoprecipitations, P48727
T1 chain: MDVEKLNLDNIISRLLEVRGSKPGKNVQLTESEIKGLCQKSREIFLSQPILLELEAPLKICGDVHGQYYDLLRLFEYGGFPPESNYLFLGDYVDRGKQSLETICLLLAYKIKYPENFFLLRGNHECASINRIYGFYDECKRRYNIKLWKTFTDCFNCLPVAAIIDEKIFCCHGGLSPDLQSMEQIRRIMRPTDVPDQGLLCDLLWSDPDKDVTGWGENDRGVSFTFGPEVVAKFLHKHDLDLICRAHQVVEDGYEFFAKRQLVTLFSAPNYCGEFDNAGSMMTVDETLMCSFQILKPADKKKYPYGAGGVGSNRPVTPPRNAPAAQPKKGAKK


Biological target: T1, GSP-2 (C. elegans PP1 homolog), as …
Assay: MudPIT analysis of 3xflag immunoprecipitations
Settings: chain shown with the change, whole-worm lysates, parent: 10.79

| Binder | response (% of total protein) (bait recovered in same sample 0.12 (mutant) vs 0.54 (wild type) % of total protein) | response (% of total protein) (bait recovered in same sample 0.22 (mutant) vs 0.54 (wild type) % of total protein) |
| --- | --- | --- |
| APE-1 (C. elegans ASPP homolog), 3xflag-tagged, as in the MudPIT immunoprecipitations, Q9XVN3 H591Y (protein) MVTTSSGGGIGYPANNGVTQVSLIHSSDSVRTVSTAPIYRPTSSMASTMAHKSSTAPFISANQRMSKPPVRVVAQPPPPHPQALSQQYHQQNPMMMYSAPNTRPHVIPTMQVQPTMAAQIKRNNPVNAQFQNPSEMIADYGVKPQSVEMVQRVRAVRRQVADEETELRRLRELEHETAQLQNKNYGRERELNVQGSMLKEAQLELRNASMRAQSLNKHLEEMYRRRQTAAAAALVEQRKMQQHQILLARAANQVSTQEVIRPRASVEPFQVNNTQQQQPSPQMMKSEEFSEKRDLNGQTGSYDAIDGSGDHQKIPTEPSYLAPCKENQQKYSELSKMASTDPHSNHSSPSTSSQKAPTLITFSPPSFEQKINSSTMTRDSPFVERPTSFGDSLDESRLRSGKTDLVSLRSDSLKATKRRSWAASEGTSMSEAEMIHRLLDEQRRGRSHFIPQLPTSQEEPSAITSETYAEEVVNSESKQVATSSDSTNNLELPTEQMVLGSDTTTEEDASSCSTRSDDGQNLEMEVAIERRTVKGILRRPNEKMNKGRIEFDPLALLLDAALEGELDLVRSSASKLTDVSQANDEGITALYNAICAGHYEIVRFLIENDADVNAQDSDGWTPLHCAASCNNLPMVRQLVEGGGCVLASTLSDMETPVEKCEEDEDGYDGCLKYLSAAHNSTGSINTGKVYAAYGYEAAFEDELSFDAGDELTVIEKDKVDKNWWTCEKNNGEKGQVPRTYLALYPSLKYRKKLNFVMFDLPLESNNNVE | 0.87 | – |
| APE-1 (C. elegans ASPP homolog), 3xflag-tagged, as in the MudPIT immunoprecipitations, Q9XVN3 N583K (protein) MVTTSSGGGIGYPANNGVTQVSLIHSSDSVRTVSTAPIYRPTSSMASTMAHKSSTAPFISANQRMSKPPVRVVAQPPPPHPQALSQQYHQQNPMMMYSAPNTRPHVIPTMQVQPTMAAQIKRNNPVNAQFQNPSEMIADYGVKPQSVEMVQRVRAVRRQVADEETELRRLRELEHETAQLQNKNYGRERELNVQGSMLKEAQLELRNASMRAQSLNKHLEEMYRRRQTAAAAALVEQRKMQQHQILLARAANQVSTQEVIRPRASVEPFQVNNTQQQQPSPQMMKSEEFSEKRDLNGQTGSYDAIDGSGDHQKIPTEPSYLAPCKENQQKYSELSKMASTDPHSNHSSPSTSSQKAPTLITFSPPSFEQKINSSTMTRDSPFVERPTSFGDSLDESRLRSGKTDLVSLRSDSLKATKRRSWAASEGTSMSEAEMIHRLLDEQRRGRSHFIPQLPTSQEEPSAITSETYAEEVVNSESKQVATSSDSTNNLELPTEQMVLGSDTTTEEDASSCSTRSDDGQNLEMEVAIERRTVKGILRRPNEKMNKGRIEFDPLALLLDAALEGELDLVRSSASKLTDVSQAKDEGITALHNAICAGHYEIVRFLIENDADVNAQDSDGWTPLHCAASCNNLPMVRQLVEGGGCVLASTLSDMETPVEKCEEDEDGYDGCLKYLSAAHNSTGSINTGKVYAAYGYEAAFEDELSFDAGDELTVIEKDKVDKNWWTCEKNNGEKGQVPRTYLALYPSLKYRKKLNFVMFDLPLESNNNVE | – | 0.87 |
